In patent publication US10716826B2, “Compositions for overcoming anti-cancer drug-resistance or compositions for anti-cancer activity employing CAGE-derived peptides” (L-Base Co., Ltd., priority 2015, dated 2020):
Entries after “also recorded” stand apart in the source; their conditions may differ.

How the values were obtained:
[1] = tested on: Malme3M^R, SNU38M^R cell strains; assay: apoptosis against an anticancer drug (FAK and PARP cleavage, Western blot); type: cell-based; details: melanoma and liver cancer cell strains
[2] = target: T1, CAGE-GSK3β inter-binding (Homo sapiens, UniProt Q86TM3); assay: Western blot and immunoprecipitation in taxol-resistance melanoma cell strain; type: cell-based; set-up: endogenous in cells; host or cells: Malme3M^R-Taxol (A2); Malme3M^R, SNU387^R (printed SNU3SM^R/SNU38^R), AGS^R (A3); details: Malme3M^R-Taxol; for CAGE-GSK3β inter-binding: immunoprecipitation
T1 sequence (Q86TM3 whole entry): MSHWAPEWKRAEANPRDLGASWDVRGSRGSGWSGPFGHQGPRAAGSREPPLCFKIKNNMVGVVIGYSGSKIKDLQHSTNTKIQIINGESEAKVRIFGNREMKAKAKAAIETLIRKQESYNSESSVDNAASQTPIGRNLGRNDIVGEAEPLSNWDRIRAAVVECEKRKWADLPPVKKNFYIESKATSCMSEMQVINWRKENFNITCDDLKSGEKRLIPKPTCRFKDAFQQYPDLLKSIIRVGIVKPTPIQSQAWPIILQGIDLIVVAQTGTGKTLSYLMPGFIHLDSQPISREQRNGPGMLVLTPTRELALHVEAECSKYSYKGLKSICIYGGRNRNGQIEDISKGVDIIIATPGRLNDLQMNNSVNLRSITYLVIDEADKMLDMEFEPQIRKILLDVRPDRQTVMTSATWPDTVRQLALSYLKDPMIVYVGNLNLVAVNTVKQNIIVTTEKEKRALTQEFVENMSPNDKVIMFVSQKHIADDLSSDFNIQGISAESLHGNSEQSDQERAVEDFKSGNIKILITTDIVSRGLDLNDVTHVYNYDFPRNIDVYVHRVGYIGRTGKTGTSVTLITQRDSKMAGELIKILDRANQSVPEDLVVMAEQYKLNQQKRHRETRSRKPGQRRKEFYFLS
Protocol: (§1) To confirm an affection of CAGE-derived oligopeptide to the interbinding and GSK3β Ser9 phosphorylation of a CAGE, a GTGKT (Sequence No.1) peptide and a specific-residue deleted and mutated peptide based on the GTGKT peptide were prepared and, after collecting proteins by a known method after transfection into respective cell stains, the Western blot and the immunoprecipitation were preformed to inspect an anticancer drug-resistance induction mechanism of the CAGE. GTGKT includes ATP binding sites of CAGE (the right panel of FIG. 3A).
To examine residues necessary for anticancer activity of a GTGKT peptide, after preparing a peptide for which the 273′rd Thr residue is deleted (GTGK) or substituted (GTGKA, sequence No. 2) with Ala in CAFE, and preparing a peptide for which the 272′nd […] residue is substituted (GTGRT) with Arg, the same manner was performed.

[3] = target: T1, CAGE-GSK3β inter-binding; assay: Western blot and immunoprecipitation in celastrol-resistance cell strains; type: cell-based; set-up: endogenous in cells; host or cells: Malme3M^R-Taxol (A2); Malme3M^R, SNU387^R (printed SNU3SM^R/SNU38^R), AGS^R (A3); details: for expression level of Cyclin D1 / inter-binding between CAGE and GSK3β proteins: celastrol-resistance cell strains (melanoma, liver cancer, gastric cancer)
Protocol: as §1

[4] = target: reassociated CAGE protein (Homo sapiens, UniProt Q86TM3); assay: in vitro kinase assay: phosphorylation of GSK3β Ser9 peptide by reassociated CAGE protein; type: biochemical; details: RTTSFAE peptide as substrate
Chain of reassociated CAGE protein (Q86TM3 whole entry): as above
Protocol: A GSK3β-described peptide RTTSFAE including GSK3β Ser9 residues was prepared for a temperament (the left panel of FIG. 3A) and phosphorylation of the GSK3β Ser9 residues by a reassociated CAGE protein was confirmed through an in vitro kinase assay by using the RTTSFAE peptide as the temperament (the left panel of FIG. 4B).

[5] = tested on: Malme3M^R, SNU38M^R, AGS^R cell strains; assay: MTT assay of anticancer drug resistance; type: cell-based; details: celastrol-resistance cell strains
Protocol: To confirm anticancer activity of a GTGKT-based oligopeptide, the MIT assay and the western blot according to a known method was performed using an immunodeficiency mouse. Then, it could be seen how the GKCKT-based oligopeptide affected tumor generation.
After transfecting a GTGKT peptide into melanoma, liver-cancer, and gastric-cancer cell strains (Malme3M^R, SNU38M^R, AGS^R) by concentration, anticancer drug resistance was inspected through the MTT assay.

[6] = tested on: tumor from Malme3MR, SNU38R cell strains; assay: tumor generation in immunodeficiency mouse, peptide injected into tail vein; type: in vivo; details: 5 times in total every 3 days for 2 weeks
Protocol: If a tumor grew up to a size enough to be measured, a digital gauge was used to a size of the tumor in a uniform interval and the tumor size was calculated by a known equation (the widest length [the shortest length]^2×0.5). After inducing a tumor in the same manner, taxol was injected into a vein of the mouse's tail for inspection to tumor generation and anticancer drug resistance.
To inspect an affection of GKGKT peptide to tumor generation, after injecting high-CAGE melanoma and liver-cancer cell strains (Malme3MR, SNU38R) into the side abdomen of an immunodeficiency mouse by a known method and then inducing a tumor, the GTGKT peptide was injected into a vein of the mouse's tail 5 times in total every 3 days for 2 weeks and a size variation of the tumor was examined. As a result, it could be seen from FIG. 8A that the GTGKT peptide reduced a size of the tumor due to the cancer cell strains.

[7] = target: T2, CAGE (Homo sapiens, UniProt Q86TM3); assay: binding of peptide to CAGE in anticancer drug-resistance cell strains
T2 construct: endogenous in cells; host or cells: anticancer drug-resistance cell strains (Malme3M^R, SNU387^R)
T2 sequence (Q86TM3 whole entry): as above

[8] = target: T1, CAGE-GSK3β inter-binding; assay: Western blot and immunoprecipitation of tumor tissue after the mouse experiment; type: in vivo; set-up: from tissue; host or cells: xenograft tumour tissue from Malme3M^R / SNU387^R cells in immunodeficiency mouse
From the text: After finishing the experiment, a protein was collected from the tumor tissue through a known method, and then activity of protein expression and an inter-binding state were conformed through the Western blot and the immunoprecipitation.

| Substance | apoptosis against an anticancer drug [1] | protein accumulation / expression level of Cyclin D1 ([2]; Western blot) | CAGE-GSK3β inter-binding [2] | expression level of Cyclin D1 [3] | inter-binding between CAGE and GSK3β proteins [3] | phosphorylation of GSK3β Ser9 residues due to the reassociated CAGE protein [4] | phosphorylation of GSK3β Ser9 residues due to the reassociated CAGE protein ([4]; listed as GTCKT) | anticancer drug resistance [5] | size of the tumor [6] | binding to CAGE [7] | expression of MDR1 in tumor tissue ([8]; Western blot) | phosphorylation state of GSK3β Ser9 in tumor tissue ([8]; Western blot) | protein expression of Cyclin D1 in tumor tissue ([8]; Western blot) | inter-binding between CAGE and GSK3β proteins in tumor tissue ([8]; immunoprecipitation) | phosphorylation of GSK3β Ser9 residues ([2]; Western blot) | phosphorylation state of GSK3β Ser9 ([3]; Malme3M^R, SNU38^R treated with peptide) |
| --- | --- | --- | --- | --- | --- | --- | --- | --- | --- | --- | --- | --- | --- | --- | --- | --- |
| GTGKA (CAGE-derived peptide) [GTGKT peptide in which the 273rd Thr residue is substituted with Ala] | induced cell apoptosis | control an expression level of Cyclin D1 | suppressed | control an expression level of Cyclin D1 | suppress |  |  |  |  |  |  |  |  |  |  |  |
| GTGKT (CAGE-derived peptide) | induced apoptosis | suppress | hindered | control an expression level of Cyclin D1; also recorded: suppressed | suppress; also recorded: hindered | suppressed in phosphorylation | suppressed | suppressed | reduced | bound specifically | reduced | dephosphorylation | decrease | suppressed | suppress | suppressed dephosphorylation |
